Measured values: US20250154265A1 (BEIGENE, published 2025)

Assays:
Assay in all cases: cell-based or functional assay
[1] = biological target: T1, human cMET on cells (Hs746T, H596, EBC-1) (human, UniProt P08581 25-1390)
[2] = biological target: T1, human cMET on cells (Hs746T, H596, …); remark: listed apart in the source
[3] = biological target: T1, human cMET on cells (Hs746T, H596, …); remark: listed apart in the source

T1 sequence (P08581 25-1390 limits assumed): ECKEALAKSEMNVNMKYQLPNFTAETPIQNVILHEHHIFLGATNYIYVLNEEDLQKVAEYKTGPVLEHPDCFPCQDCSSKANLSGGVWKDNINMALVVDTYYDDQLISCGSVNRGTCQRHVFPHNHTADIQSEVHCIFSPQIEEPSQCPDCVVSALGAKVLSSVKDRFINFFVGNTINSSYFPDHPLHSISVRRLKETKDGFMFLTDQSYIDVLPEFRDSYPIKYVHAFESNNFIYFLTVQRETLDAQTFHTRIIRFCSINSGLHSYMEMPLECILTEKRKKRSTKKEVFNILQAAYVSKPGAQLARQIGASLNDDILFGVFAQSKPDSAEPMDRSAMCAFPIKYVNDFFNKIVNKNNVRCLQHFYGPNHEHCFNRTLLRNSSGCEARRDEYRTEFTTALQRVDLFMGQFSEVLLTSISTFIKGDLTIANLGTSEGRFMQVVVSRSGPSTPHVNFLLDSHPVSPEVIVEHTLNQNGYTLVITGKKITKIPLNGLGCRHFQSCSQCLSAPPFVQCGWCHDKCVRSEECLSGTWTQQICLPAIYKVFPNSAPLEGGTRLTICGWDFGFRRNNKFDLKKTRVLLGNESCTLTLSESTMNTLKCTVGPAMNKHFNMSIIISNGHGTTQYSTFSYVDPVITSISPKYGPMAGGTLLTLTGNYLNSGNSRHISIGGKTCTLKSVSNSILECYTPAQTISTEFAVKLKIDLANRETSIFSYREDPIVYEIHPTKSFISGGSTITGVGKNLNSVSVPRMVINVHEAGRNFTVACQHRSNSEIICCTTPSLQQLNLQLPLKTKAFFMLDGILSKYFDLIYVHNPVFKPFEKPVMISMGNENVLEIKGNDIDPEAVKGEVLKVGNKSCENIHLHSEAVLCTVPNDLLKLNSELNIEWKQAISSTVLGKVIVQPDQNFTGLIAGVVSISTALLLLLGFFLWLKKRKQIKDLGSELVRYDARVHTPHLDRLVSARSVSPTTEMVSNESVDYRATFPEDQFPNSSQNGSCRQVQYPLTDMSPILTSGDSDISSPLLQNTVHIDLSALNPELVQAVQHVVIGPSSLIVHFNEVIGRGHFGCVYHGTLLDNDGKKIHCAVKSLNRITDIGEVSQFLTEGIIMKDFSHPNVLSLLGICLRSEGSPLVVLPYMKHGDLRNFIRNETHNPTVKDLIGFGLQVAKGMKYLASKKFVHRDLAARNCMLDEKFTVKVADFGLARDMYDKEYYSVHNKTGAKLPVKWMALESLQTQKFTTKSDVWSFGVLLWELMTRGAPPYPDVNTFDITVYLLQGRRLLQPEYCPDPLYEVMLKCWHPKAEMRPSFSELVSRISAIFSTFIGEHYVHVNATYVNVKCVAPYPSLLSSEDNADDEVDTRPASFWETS

B1: 063Ab07710 (antibody, human IgG1, kappa, V domains shown)
VH: QVQLVESGGGVVQPGRSLRLSCAASGFTFSSYGMHWVRQAPGKGLEWVAVISNDGSYKYYVDSVTGRFTISRDNSKNTLYLQMNSLRAEDTAVYYCAKDRNMGYSGWFDYWGQGSLVTVSS
VL: not shown
- IC50, inhibition of HGF-induced ERK phospho-T202/Y204 in H596 cells [1]: > 250 nM

B2: 06BS02 (bispecific antibody, V domains shown)
VH 1: QVQLVESGGGVVQPGRSLRLSCAASGFTFSSHGMHWVRQAPGKGLEWVAVISYDESDKYYADSVKGRFTISRDHSKNTLYLQMNSLRAEDTAVYYCVKDRNMGYSGWLDYWGQGTLVTVSS
VH 2: QFQLQESGPGLVKPSETLSLTCTVSGGSISTSSYYWGWIRQPPGKGLEWIGTIYFSGTTYYNPSLTSRVSMSVDTSKNQFSLKLNSVTAADTSIYYCARHWPKYNSWFDPWGQGFLVTVSS
VL: not shown
- Imax %, inhibition of HGF-induced ERK phospho-T202/Y204 in H596 cells [2]: 90%

B3: 06BS03 (bispecific antibody, V domains shown)
VH 1: QVQLVESGGGVVQPGKSLRLSCAASGFTFSSSGLHWVRQAPGKGLEWVAVISYDTSNKYYADSVKGRFTISRDNSKNTLYLQMNSLRAEDTAVYYCAKDLNRGYDWGFDYWGQGTLVTVSS
VH 2: QFQLQESGPGLVKPSETLSLTCTVSGGSISTSSYYWGWIRQPPGKGLEWIGTIYYSGTTYYNPSLKSRVTISVDTSKNQFSLKLKSVTAADTSIYYCARHWPKYNSWFDPWGQGILVTVSS
VL: not shown
- IC50, inhibition of ERK phospho-T202/Y204 in Hs746T cells [3]: 0.5 nM
